Reference: PMC11405125 (Briefings in Bioinformatics, 2024)
Numbering of substitutions follows the chain as printed. In names and notes the source's numbering stands.

B1: HuJ3 E44R (VHH)
VHH: EVQLVESGGGLVQPGGSLRLSCAASGSIFNQYAMAWFRQAPGKRREFVAGMGAVPHYGEFVKGRFTISRDNSKNTVYLQMNSLRAEDTAVYYCARSKSTYISYNSNGYDYWGQGTLVTVS
B2: HuJ3 V54E (VHH)
VHH: B1 VHH with R44E, V54E
B3: HuJ3 S102R (VHH)
VHH: B1 VHH with R44E, S102R

Biological target: HIV-1 Bal gp140 (Human immunodeficiency virus 1, isolate …, UniProt Q2MKA8, strain)
Assay: ELISA

Row | Binder | EC50 [nM]
1 | B1 | 1.7
2 | B2 | 2.31
3 | B3 | 10.4
